Results from patent US20220144937A1 (JIANGSU HENGRUI MEDICINE, published 2022).
Residue numbers refer to the chain shown, from its start. Names and notes keep the numbering of the source. Blank lines part the entries; values can stand above or below the binder they belong to.

What was measured:
[1] = biological target: T1, human IL-5 with his-tag (rhIL-5-his) (human, UniProt P05113 20-134); test: Biacore
T1 construct: It was expressed in HEK293 and purified from the supernatant; also called HuIL-5; recombinant human IL-5
T1 sequence: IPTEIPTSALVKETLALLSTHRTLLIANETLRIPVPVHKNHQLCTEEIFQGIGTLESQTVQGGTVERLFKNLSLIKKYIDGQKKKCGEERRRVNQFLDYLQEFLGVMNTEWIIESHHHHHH
Method: (§1) The affinity of the murine IL-5 antibody to be tested with human IL-5 was measured by Biacore T200 (GE) instrument.
(§2) The protein A biosensor chip was used to affinity capture of the molecules to be tested, and then the antigen (recombinant human and cyno IL-5 prepared in Example 1) flowed through the surface of the chip, and the reaction signal was detected in real time with the Biacore T200 instrument to obtain the binding and dissociation curves. After the dissociation of each experimental cycle was completed, the biosensor chip was washed and regenerated with glycine-hydrochloric acid regeneration solution (pH 1.5). BIA evaluation version 4.1 GE software was used to fit the data against (1:1) Langmuir model, and the affinity value was obtained and shown in Table 13.

[2] = biological target: T1, human IL-5 with his-tag (rhIL-5-his); test: Biacore T200, antibody captured on protein A chip, antigen in flow, 1:1 Langmuir
Method: as §1, §2

cyno IL-5 with his-tag = biological target: T2, cyno IL-5 with his-tag (cyno (paragraph 156 says rhesus), UniProt P48093 20-134 (rhesus entry)); test: as above
T2 construct: also called rhesus IL-5 with His-tag; monkey IL-5
T2 sequence: T1 sequence with T7A, D80G
Method: as §1, §2

[3] = biological target: T1, human IL-5 with his-tag (rhIL-5-his); test: competition ELISA: IL-5 coated, biotin-IL-5Rα (10 µg/ml) as competitor, antibody diluted
Method: To identify the ability of IL-5 antibody to block IL-5 from binding to the extracellular region of recombinantly expressed IL-5α receptor protein, IL-5 (5 μg/ml in PBS) was coated on an ELISA plate and incubated at 37° C. for 1 hour; the liquid was removed, 200 μl/well of 5% skimmed milk blocking solution diluted with PBS was added, and incubated for 2.5 hours in a 37° C. incubator for blocking. After blocking, the blocking solution was removed and the plate was washed with PBST buffer (pH 7.4 PBS comprising 0.05% Tween-20) for 5 times; 25 μl of 10 μg/ml IL-5Rα (in 1% BSA) labeled by a biotin labeling kit (Tojin Chemical, LK03) was added, and then 25 μl of gradient-diluted antibody was added (the antibody competed with IL-5Rα for the binding with IL-5) and incubated at 37° C. for 1 hour. After the incubation, the reaction solution in the microtiter plate was removed, the plate was washed for 5 times with PBST, added with 50 μl/well of Streptavidin-Peroxidase Polymer (Sigma, 52438-250UG) diluted with sample dilution solution at 1:600 and incubated for 1 hour at 37° C.

[4] = biological target: T1, human IL-5 with his-tag (rhIL-5-his); test: FACS blocking: biotin-IL-5 (100 ng/ml) binding to IL-5Rα/β-CHOS cells, antibody diluted
Method: Particular method was as follows: CD-CHO comprising […] and […] zeozin was used to culture CHO-S-IL-5Rα and β. During cell culture, the concentration should not exceed 3×10⁶ cells/ml. IL-5Rα/β-CHOS cells in good condition were centrifuged (at 1000 rpm, 5 min), and washed once with 10% FBS in PBS, and the cells were counted, the cell concentration was adjusted to 4×10⁶ cells/ml, and 25 μl was taken out and added into a round-bottom 96-well plate. The antibody to be tested was diluted with PBS solution comprising 10% FBS. The initial concentration was 200 μg/ml, and diluted at 1:10 for 8 gradient dilutions. 25 μl of 100 ng/ml IL-5 labeled by a biotin labeling kit (Tojin Chemical, LK03) was added, and fully mixed with 50 μl of diluted antibody at each concentration, and added into 96-well plate that has been added with cells, and incubated at 4° C. for 1 hour. After the incubation, the sample was centrifuged at 4° C. (400 g, 5 min), and the supernatant was removed, the plated was washed with 200 μl of pre-cooled PBS by centrifugation, repeated for twice; PE-Avidin secondary antibody diluted at 1:1333 was added and incubated in the dark at 4° C. for 40 min, centrifuged at 4° C.

[5] = biological target: T1, human IL-5 with his-tag (rhIL-5-his); test: cell-based or functional assay
[6] = biological target: T1, human IL-5 with his-tag (rhIL-5-his); test: Biacore T200, antibody captured on protein A chip, antigen in flow, 1:1 Langmuir; remark: listed apart in the source
Method: The affinity of the humanized IL-5 antibody to be tested with human IL-5 was measured by Biacore T200 (GE) instrument.
as §2, with “(prepared” for “(recombinant human and cyno IL-5 prepared”, “14.” for “13.”

[7] = biological target: T1, human IL-5 with his-tag (rhIL-5-his); test: cell-based or functional assay; remark: listed apart in the source
[8] = biological target: GMCSF (R&D, 215-GM-010/CF) (UniProt P04141 18-144); test: Fortebio biolayer interferometry: antibody captured on Protein A biosensor, 40 nM cytokine injected; signal relative to IL-5 = 100%
Chain of GMCSF (R&D, 215-GM-010/CF) (P04141 18-144 limits assumed): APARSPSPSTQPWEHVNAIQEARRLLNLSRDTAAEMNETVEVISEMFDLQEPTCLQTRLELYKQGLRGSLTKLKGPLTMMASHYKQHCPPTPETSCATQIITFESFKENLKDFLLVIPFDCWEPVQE
Method: (§3) IL-5 was one of Th2 cytokines.
(§4) In particular: Protein A Biosensor (PALL Fortebio, 18-5010) was used to capture the antibody, the capture signal was recorded, and then 40 nM each cytokine was injected, the new binding signal was recorded. Finally, the binding signal with IL-5 was defined as 100%.

[9] = biological target: IL10 (R&D, 217-IL-025/CF) (UniProt P22301 19-178); test: as above
Chain of IL10 (R&D, 217-IL-025/CF) (P22301 19-178 limits assumed): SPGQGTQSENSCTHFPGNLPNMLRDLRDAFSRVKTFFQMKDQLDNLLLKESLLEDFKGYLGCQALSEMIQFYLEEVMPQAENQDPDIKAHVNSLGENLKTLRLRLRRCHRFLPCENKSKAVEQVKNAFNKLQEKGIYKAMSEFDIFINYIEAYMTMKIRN
Method: as §3, §4

IL9 (R&D, 209-IL-010/CF) = IL9 (R&D, 209-IL-010/CF) (UniProt P15248 19-144); test: as above
Chain of IL9 (R&D, 209-IL-010/CF) (P15248 19-144 limits assumed): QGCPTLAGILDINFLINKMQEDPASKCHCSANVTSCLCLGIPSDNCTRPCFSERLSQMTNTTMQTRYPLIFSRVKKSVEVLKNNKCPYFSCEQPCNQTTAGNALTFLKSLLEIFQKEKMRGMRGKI
Method: as §3, §4

[10] = biological target: T3, IL25 (R&D, 8134-IL-025/CF) (UniProt Q9H293 33-177); test: as above
T3 sequence (looked up): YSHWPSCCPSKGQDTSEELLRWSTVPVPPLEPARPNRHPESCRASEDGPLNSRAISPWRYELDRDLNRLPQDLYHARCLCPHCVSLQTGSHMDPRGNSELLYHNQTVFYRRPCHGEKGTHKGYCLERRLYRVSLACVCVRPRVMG
Method: as §3, §4

IL3 (203-IL-050/CF) = biological target: T4, IL3 (203-IL-050/CF) (UniProt P08700 20-152); test: as above
T4 sequence (looked up): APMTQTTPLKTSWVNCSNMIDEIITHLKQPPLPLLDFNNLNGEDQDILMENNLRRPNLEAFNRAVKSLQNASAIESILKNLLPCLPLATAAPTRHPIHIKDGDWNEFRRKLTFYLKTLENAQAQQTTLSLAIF
Method: as §3, §4

IL4 (R&D, 204-IL-050/CF) = biological target: T5, IL4 (R&D, 204-IL-050/CF) (UniProt P05112 25-153); test: as above
T5 sequence (looked up): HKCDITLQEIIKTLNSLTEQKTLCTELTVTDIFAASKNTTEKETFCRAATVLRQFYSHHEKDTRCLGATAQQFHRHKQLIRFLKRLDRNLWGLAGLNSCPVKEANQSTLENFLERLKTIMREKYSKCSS
Method: as §3, §4

[11] = biological target: IL6 (R&D, 7270-IL-025/CF) (UniProt P05231 30-212, limits assumed); test: as above
Method: as §3, §4

IFNgamma = biological target: T6, IFNgamma (UniProt P01579 24-166, limits assumed); test: as above
T6 sequence (looked up): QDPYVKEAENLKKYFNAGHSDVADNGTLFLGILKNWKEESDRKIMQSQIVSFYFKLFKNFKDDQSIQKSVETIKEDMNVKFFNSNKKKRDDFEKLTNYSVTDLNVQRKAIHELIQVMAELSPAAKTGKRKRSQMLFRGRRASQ
Method: as §3, §4

IL2 (R&D, 202-IL-010/CF) = IL2 (R&D, 202-IL-010/CF) (UniProt P60568 21-153); test: as above
Chain of IL2 (R&D, 202-IL-010/CF) (P60568 21-153 limits assumed): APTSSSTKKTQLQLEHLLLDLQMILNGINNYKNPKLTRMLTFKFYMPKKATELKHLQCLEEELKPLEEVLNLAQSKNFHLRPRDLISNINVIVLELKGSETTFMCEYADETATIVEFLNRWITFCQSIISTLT
Method: as §3, §4

[12] = biological target: T7, IL31 (R&D, 2824-IL-010/CF) (UniProt Q6EBC2 24-164); test: as above
T7 sequence (looked up): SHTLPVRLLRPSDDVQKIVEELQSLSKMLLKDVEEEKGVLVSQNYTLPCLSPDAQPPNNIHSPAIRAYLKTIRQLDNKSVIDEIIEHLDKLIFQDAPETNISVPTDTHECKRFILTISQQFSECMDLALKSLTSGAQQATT
Method: as §3, §4

[13] = biological target: IL13 (R&D, 213-ILB-025/CF) (UniProt P35225 35-146); test: as above
Chain of IL13 (R&D, 213-ILB-025/CF) (P35225 35-146 limits assumed): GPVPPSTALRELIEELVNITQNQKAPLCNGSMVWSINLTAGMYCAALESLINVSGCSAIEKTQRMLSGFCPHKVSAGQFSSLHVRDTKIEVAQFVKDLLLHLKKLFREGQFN
Method: as §3, §4

Kd [1]: 0.0727 nM
Kd [2]: 0.0727 nM
Kd (cyno IL-5 with his-tag): 0.205 nM
IC50 [3]: 0.42 µg/mL
B1: mAb1705 (antibody, V domains shown)
VH: EVQLVESGGGLVQPGRSLKLSCTASGFTFSHYYMAWVRQAPKKGLEWVTSISYEGDITYYGDSVKGRFTISRDNAKSTLYLQMNSLRSEDTATYYCASQTLRESFDYWGQGVMVTVSS
VL: DIQMTQSPSSMSVSLGDRVTITCRASQDIANYLSWYQQKIARSPKLVIYGTSNLEVGVPSRFSGSRSGSDYSLTINTLESEDTGIYFCLQDKEFPRTFGGGTRLELK
notes: Murine hybridoma antibody

Kd [1]: 0.0383 nM
Kd [2]: 0.0383 nM
Kd (cyno IL-5 with his-tag): 0.277 nM
IC50 [3]: 0.4 µg/mL
B3: mAb1706 (antibody, V domains shown)
VH: B1 VH with T23A, S52N, D56N, I57S, T58A, N84D, S98T, Q99E, F105L
VL: DIQMTQSPSSMSVSLGDRVTITCRASQDIGNYLSWYQQKLGKSPKLMIHSASNLEVGVPSRFSGSRSGSDYSLTINTLESEDPGIYFCLQHKQFPRTFGGGTKLELK
notes: Murine hybridoma antibody

Continued, binder first:

B2: h1706-009 (antibody, human IgG1, kappa, V domains shown)
VH: EVQLVESGGGLVQPGGSLRLSCAASGFTFSHYYMAWVRQAPGKGLEWVSSINYEGNSAYYGDSVKGRFTISRDNSKNTLYLQMNSLRAEDTAVYYCATETLRESLDYWGQGTMVTVSS
VL: DIQMTQSPSSVSASVGDRVTITCRASQDIGNYLSWYQQKPGKSPKLMIYSASNLEVGVPSRFSGSGSGTDYTLTISSLQPEDFATYFCLQHKQFPRTFGGGTKVEIKR
IC50 [4]: 0.0247 µg/mL
IC50 of blocking IL-5 induced eosinophil adhesion [5]: 0.0043 µg/mL
Kd [6]: 0.0545 nM
IC50 of inhibition of IL-5 induced TF1 cell proliferation [7]: 0.25 nM
binding result [8]: no binding (tested: 40 nM)
binding result [9]: no binding (tested: 40 nM)
binding result (IL9 (R&D, 209-IL-010/CF)): no binding (tested: 40 nM)
binding result [10]: no binding (tested: 40 nM)
binding result (IL3 (203-IL-050/CF)): no binding (tested: 40 nM)
binding result (IL4 (R&D, 204-IL-050/CF)): no binding (tested: 40 nM)
binding result [11]: no binding (tested: 40 nM)
binding result (IFNgamma): no binding (tested: 40 nM)
binding result (IL2 (R&D, 202-IL-010/CF)): no binding (tested: 40 nM)
binding result [12]: no binding (tested: 40 nM)
binding result [13]: no binding (tested: 40 nM)

B4: h1705-008 (antibody, human IgG1, kappa, V domains shown)
VH: B1 VH with R16G, K19R, T23A, K42G, A75S, S77N, S88A, V112T, M113L
VL: B2 VL with G30A, M47L, S50G, A51T, G66R, Y71F, F87Y, H91D, Q93E
notes: IgG1 with M252Y/S254T/T256E, kappa
IC50 [4]: 0.0145 µg/mL
IC50 of blocking IL-5 induced eosinophil adhesion [5]: 0.00485 µg/mL
Kd [6]: 0.0342 nM
IC50 of inhibition of IL-5 induced TF1 cell proliferation [7]: 0.2 nM
binding result [8]: no binding (tested: 40 nM)
binding result [9]: no binding (tested: 40 nM)
binding result (IL9 (R&D, 209-IL-010/CF)): no binding (tested: 40 nM)
binding result [10]: no binding (tested: 40 nM)
binding result (IL3 (203-IL-050/CF)): no binding (tested: 40 nM)
binding result (IL4 (R&D, 204-IL-050/CF)): no binding (tested: 40 nM)
binding result [11]: no binding (tested: 40 nM)
binding result (IFNgamma): no binding (tested: 40 nM)
binding result (IL2 (R&D, 202-IL-010/CF)): no binding (tested: 40 nM)
binding result [12]: no binding (tested: 40 nM)
binding result [13]: no binding (tested: 40 nM)
